Data: article PMC9481697

Key:
[1] = target: FlaA (TDE1712), flagellar filament sheath protein of Treponema denticola (Treponema denticola ATCC 35405); test: isolation of native flagellar filaments, 2D gel electrophoresis with densitometry; periplasmic flagella isolated from the ΔflaB3 mutant; 2D gels, Coomassie staining, densitometry; ratios relative to FlaA
[2] = target: FlaA (TDE1712), flagellar filament sheath protein of Treponema denticola (Treponema denticola ATCC 35405); test: isolation of native flagellar filaments, 2D gel electrophoresis with densitometry and immunoblot
[3] = target: FlaA (TDE1712), flagellar filament sheath protein of Treponema denticola (Treponema denticola ATCC 35405); test: isolation of native flagellar filaments, 2D gel electrophoresis with densitometry; periplasmic flagella isolated from the ΔflaB2 mutant; 2D gels, Coomassie staining, densitometry; ratios relative to FlaA
[4] = target: FlaA (TDE1712), flagellar filament sheath protein of Treponema denticola (Treponema denticola ATCC 35405); test: isolation of native flagellar filaments, 2D gel electrophoresis with densitometry; periplasmic flagella isolated from the ΔflaB1 mutant; 2D gels, Coomassie staining, densitometry; ratios relative to FlaA

Substance	stoichiometry relative to FlaA in isolated filaments (ratio relative to FlaA) [1]	stoichiometry relative to FlaA in isolated filaments (ratio relative to FlaA) [2]	stoichiometry relative to FlaA in isolated filaments (ratio relative to FlaA) [3]	stoichiometry relative to FlaA in isolated filaments (ratio relative to FlaA) [4]
FlaB1 (TDE1477), flagellar filament core flagellin of Treponema denticola (from UniProt Q73MN1 1-286) (natural protein)	1.12	0.71	1.04	–
FlaB2 (TDE1004), flagellar filament core flagellin of Treponema denticola (from UniProt Q73NZ6 1-286) (natural protein)	0.36	0.61	–	0.5
FlaB3 (TDE1475), flagellar filament core flagellin of Treponema denticola (from UniProt Q73MN3 1-285) (natural protein)	–	0.18	0.38	0.94
